Assays:
HLA-Cw*1701 (human) = experiment: Luminex beads; MAb 1/200; competitor IgG-free serum
HLA-B*5801 (human) [1] = experiment: as above
HLA-Cw*0304 (human) = experiment: as above
HLA-B*1401 (human) = HLA-B*1401 (human) (UniProt P01889); experiment: as above
HLA-B*4006 (human) = HLA-B*4006 (human) (UniProt P01889); experiment: as above
HLA-Cw*1802 (human) = HLA-Cw*1802 (human) (UniProt P10321); experiment: as above
HLA-Cw*0602 (human) = HLA-Cw*0602 (human) (UniProt P10321); experiment: as above
HLA-Cw*0501 (human) = experiment: as above
HLA-B*5201 (human) = experiment: as above
HLA-B*5801 (human) [2] = experiment: Luminex beads; MAb 1/800; PBS only

MFI (HLA-Cw*1701 (human)): 1930 MFI
MFI (HLA-B*5801 (human) [1]): 3420 MFI
MFI (HLA-Cw*0304 (human)): 2030 MFI
MFI (HLA-B*1401 (human)): 5370 MFI
MFI (HLA-B*4006 (human)): 7410 MFI
MFI (HLA-Cw*1802 (human)): 8810 MFI
MFI (HLA-Cw*0602 (human)): 2190 MFI
MFI (HLA-Cw*0501 (human)): 6260 MFI
MFI (HLA-B*5201 (human)): 2020 MFI
MFI (HLA-B*5801 (human) [2]): 835 MFI
Substance: murine monoclonal antibody (MAb) MEM-E/02

Source: patent US20120171195A1
